Laboratory results from the DeepSol protein solubility set.

Test: soluble on expression in E. coli; label from the status in PepcDB or PDB records
For “MSYSDYPSDIADYSSFDNMMADICNPSSSSSSNRKRQADPAPDNFAKIPAGMATQPLYFPIHYPVNSGWQSFDVNQVYNNHNMNQPGFGWVALPPPMPHNLQIPDQNSYKPRSGLPVPPPMAEFQDVNGIQQNPNEIFKNAPITSAMCTPESDISTSTNLTPDQDSAQLPLTEQELNEEKNFVVNIESPGKLAHYFLPNVESEQEPNEHIPYPYAKSLFPTFGVPVSSDGNVVAEVVDGRLPAVGTRSKYDITVDEIRRRCGAPEHMNQSALYCFFRKSKKREAINRVKQVLTVHNIPMRTMQRQRKVTCFSPFLEEEATALARDLDSISEEFLPINIIAQEMLEKLMSSGNNLDVCHRMLKNTTATITRVIKTLEVRQPKITGQEEKLKGNNLDLSYHNFSLITHGFGHPNSLSHYRSYLSIVERAVLLCEKIQNGQSLLSNEDVIPGQKPFERMSNEYFVEWQMNLYKKKLAKQMEEVEENKSQRGEHQQIHQHQLYQQHHTNTHPPMPLMPPSQMNLCPPITPIPPQNVYYY”, the “soluble on expression in E. coli” value was “not soluble”. For “MSYVAEKKKIANVLSNRYASAELTELWSPEAKILLERQLWIAVMKAQKNLGVDIPTEAISAYEAVIDRIDLDSIAQREKITRHDVKARIEEFNALAGYEHIHKGMTSRDLTENVEQLQIYRSLEMMRNKSVSVAAAIAQHAAQYQSLVMAGRSHNVAAQATTLGKRFASAAEEILVAIDRVEDLLSRYPLRGIKGPMGTAQDMLDLVGGDESKLAALETQIADHLGIARVFDSVGQVYPRSLDFDAVSALVQLGAGPSSLAHTIRLMAGNETVTEGFKEGQVGSSAMPHKMNARSCERVGGLQVILRGYLTMVADLSGQQWNEGDVFCSVIRRVALPDAFFALDGMYETFLTVLAEFGAFPAMIDRELERYLPFLATTRILMAAVRVGVGRETAHEVIKENAVAVALNMRENGGEQDLIDRLAADERLPMTREQLDEALADRHAFIGAAESQVARVVDRVNDLVRRYPAAAQYTPGDIL”, the “soluble on expression in E. coli” value was “not soluble”. In the case of “MSYYHHHHHHDYDIPTTENLYFQGAMGSGIPMSLPGSTHSTAAELTGPSLVEVLRARPWFEEPPKAVELEGLAACEGEYSQKYSTMSPLGSGAFGFVWTAVDKEKNKEVVVKFIKKEKVLEDCWIEDPKLGKVTLEIAILSRVEHANIIKVLDIFENQGFFQLVMEKHGSGLDLFAFIDRHPRLDEPLASYIFRQLVSAVGYLRLKDIIHRDIKDENIVIAEDFTIKLIDFGSAAYLERGKLFYTFCGTIEYCAPEVLMGNPYRGPELEMWSLGVTLYTLVFEENPFCELEETVEAAIHPPYLVSKELMSLVSGLLQPVPERRTTLEKLVTDPWVTQPVNLADYTWEEVCRVNKPESGVLSAASLEMGN”, the “soluble on expression in E. coli” value was “soluble”. In the case of “MSYYHHHHHHDYDIPTTENLYFQGAMGSMNTRNTRSKQRAPCGVSSSVKPRLDLIEQAPNPVYDRHPACITLPERTCRHPLTDLEANEQLGRCEDSVKNRFDRVIPFLQVVAGIPLGLDHVTRVQELAQSSLGHTLPEELLKDNWISGHNLKGIFGYATAKALTAATEQFSRKIMSEKDDSASAIGFFLDCGFHAVDISPCADGRLKGLLPYILRLPLTAFTYRKAYAGSMFDIEDDLAQWEKNELRRYREGVPNTADQPTRYLKIAVYHFSTSDPTHSGCAAHGSNDRAALEAALTQLMKFREAVENAHCCGASIDILLIGVDTDTDAIRVHIPDSKGFLNPYRYVDNTVTYAQTLHLAPDEARVIIHEAILNANRSDGWAKGNGVASEGMRRFIGQLLINNLSQIDYVVNRHGGRYPPNDIGHAERYISVGDGFDEVQIRNLAYYAHLDTVEENAIDVDVGITIFTKLNLSRGLPIPIAIHYRYDPNVPGSRERTVVKARRIYNAIKERFSSLDEQNLLQFRLSVQAQDIGSPIEEVASA”, the “soluble on expression in E. coli” value was “soluble”. With “MTAGFNFNNYAAGFCSATPALRGNEVNMDTLNLGNNESLVCGVFPNQDGTFTAMTYTKSKTFKTEAGARRWLARNTD” the “soluble on expression in E. coli” value was “soluble”. With “MTALTIKDLRYKHNQRMILQNVQLTLAPSKIVGLLGENGAGKTTLMRLITGSAKGQGSIVINGATTAVARKQQVSFTDHLTGFSAGMKLQQIAQFYQLVYPDFDAKRYQELVDFLELNQQQKLGELSKGTREKLIIALTLSRKVALYLLDEPFSGIDSMSRKKIINSIIKWTPAEATLLISDHYVTEIAPILDEIVVVKDQTIVVHQGADEIRDEHGMELEDYYESLYMGGVTDDK” the “soluble on expression in E. coli” value was “not soluble”. For “MTAPSLLIAGCGDIGSRLATRLLPHGWTVHGLRRTVSELPAGVHGVAGDLFDTRKPALWPAAALDYVVYCATPSKRDEAGYRMAYVEGLRNVLSWLEQTGQRPKRLIFVSSSGVYGQQNGEWVDEDSITEPANYTGTVMLEAEQLALNSGLPATAVRLTGIYGPGRSDLSNRVRQGHSVRIDPPVYANRIHADDAASLLEHLLQADQRGVALESCYLGVDDDPAALADVVAWIREYLGVTEWSEEVSVQRVGSKRCSNARARALGWTPMYPDYRAGYAALLG”, the “soluble on expression in E. coli” value was “not soluble”. In the case of “MTARVAGQAVGGQILVGEPVHDAVSDCADIRFGSYRLFSLDAAPGPDLD”, the “soluble on expression in E. coli” value was “not soluble”. For “MTASDYEWQPDILGKDFQQLVIPLGADPISEGGEDDIFATLVRYAPADQPTPTSRPAVLFVHGMTDYFFQRHVAQWFHQHGFSVYALDLRKCGRSHRNNQSWHYISDISRYFEELDRAKSIIEELHPTIFPIGHSTGGLILAHWLDGLRQCETLHPTIPGAILNSPWLDMMTPATVTRALRPILTRAARRFPHASFGRSKEGTYGRSLHASRSGEWDYDISFKPLTGHLRKLGWLHAIDTAQSLVHNDAVDCGIPLLMLCSDHSSLRGKFSPRAQVTDTVLDVEQMKRWAPHLSEYVSVCTIRGAVHDVYLSQKPARLQALETSVRWMNRILSEHTI”, the “soluble on expression in E. coli” value was “not soluble”. In the case of “MTDCCPGFGSVAKYIAVSVREASFDVRSMAATSTCIFVLEVMGRHAGWIAAAGGLASDERHELALVILFPEQVFDPERFLRAVDEKVRSHGYCSVVVSEGIRGADGRFVAESGSRDVFGHARLGGVAPVIADLIKERLGYKYHWAVADYLQRAARHIALEHHHHHH”, the “soluble on expression in E. coli” value was “not soluble”. With “MTDEKKKGVIFDIQRWSLHDGPGIRTNVFFKGCPLSCQWCSNPESQEFCREPALFGDKCIHCLSCVEHCPHGAIHTSDPWIRLDYEICRGRCSRGAEQENAFCCTKACYAQALTVMGEVMTADMVLEEVMRDEGIYRSSGGGVTMTGGEPLAQPEFLLELLTAAKERGLHTVMESSMFAEWDKIQACLPYLDVLFMDMKLLPEEKHVKYTGVSNQIILDNIRRAAAYARTHRLELAVRTPVIPGINDTSGDIAAMADWIKKHLPGVERYELLPYHRLGRGKYRNIGREYQLGDIVPPSKEKMKELEAVVSKLGLRRE” the “soluble on expression in E. coli” value was “not soluble”. In the case of “MTDKKTTEKKETETAATFTEELTAVLEEIKEEPVKEKKKGEIVTIVNETDIQIGEREYRIVKNHRDAFDPERLGERFSEVLARYDYIVGDWGYEQLRLRGFFDTSNRRAAPDQRIDTLEDYLYEYCNFGCAYFVIERTGERKEKTTHRRRRHKKNNRSNAFVEEKSAPANKNSKPVIRTRKEENKKTTTPKQPSPKKSGKGFTIRQREELEHHHHHH”, the “soluble on expression in E. coli” value was “soluble”. In the case of “MTDKPTYEQTLRGNAIRAISACDLDEKVRLARETASRWFARALSVRSPLDPPLPERPGRPEKPELVPPRMLKKRSLNTEHGRIALMHALAHIELNAIDLALDIVARFAVKPIPRSFFDGWMKVADDEARHFTLLRNRLKSLGADYGDMPAHDGLWQSAHQTRNDLEARLAVVPLILEARGLDVTPSLLEKMIETGDHETAAILNIIYNDEKTHVAVGAKWFRFFCARNRIDPAARFRELVRANFRGELKPPFNELARAEAGLTPSFYRSLSPVSILEHHHHHH”, the “soluble on expression in E. coli” value was “not soluble”. In the case of “MTDNNKYRDVEIRAPRGNKLTAKSWLTEAPLRMLMNNLDPQVAENPKELVVYGGIGRAARNWECYDKIVETLTRLEDDETLLVQSGKPVGVFKTHSNAPRVLIANSNLVPHWANWEHFNELDAKGLAMYGQMTAGSWIYIGSQGIVQGTYETFVEAGRQHYGGSLKGKWVLTAGLGGMGGAQPLAATLAGACSLNIESQQSRIDFRLETRYVDEQATDLDDALVRIAKYTAEGKAISIALHGNAAEILPELVKRGVRPDMVTDQTSAHDPLNGYLPIGWTWEQYRDRAQTIPAAVVKAAKASMAVHVQAMLDFQKQGVPTFDYGNNIRQMAKEEGVANAFDFPGFVPAYIRPLFCRGVGPFRWAALSGEAEDIYKTDAKVKELIPDDAHLHRWLDMARERISFQGLPARICWVGLGLRAKLGLAFNEMVRSGELSAPVVIGRDHLDSGSVSSPNRETEAMRDGSDAVSDWPLLNALLNTAGGATWVSLHHGGGVGMGFSQHSGMVIVCDGTDEAAERIARVLTNDPGTGVMRHADAGYDIAIDCAKEQGLDLPMITG”, the “soluble on expression in E. coli” value was “soluble”. In the case of “MTDVEKPVDNSGTLIDDILSPLKGVNEDLNVLVLGGDKVNNNTDTMMLVNFKPSTSKVSILSIPRDTKVKINGKKAKINSAYPTGGGELAVQTVSELFGIDVKYYVFVDTSSFRKIIDILGGVDYYVPVDMDYDDPLQGLSIHIKKGQHHFDGAMAEKFMRFRQYNNGRVNEYYDGSDLKRIDAQQNFIRELVRQKLNIFYLTKVDDIASTIFSNIDTNLNMSEVLKLTGSVSKVQADSINMLKVPGKSVLDGAWYYVIDSQETDKIINEYFRTRYKLEHHHHHH”, the “soluble on expression in E. coli” value was “soluble”. With “MTDVKTQNAISLKGSAQLVKEFFHFGLNSILYQRALYPSDSFKREKKYGLTLWVAHEKKLQAFMDPLLQQVEYWLAKRQLKRLVMVISEVKTKEVVERWQFDIHTENLAEEGYEIV” the “soluble on expression in E. coli” value was “not soluble”. In the case of “MTDYLNVGKIVNTQGIKGEVRVISKTDFPEERYQKGAMLLLFQEKKAPIELVVKSHRKHKNFDILSFEGHPNINDVEKYRDGILKVAKDNLAELAEDEFYYHQIIGATVYDETGSELGKIKEILSPGANDVWVVQRPKKKDLLLPYIEGVVTKVDVENQRIDVDIPEGLIDDENLEHHHHHH”, the “soluble on expression in E. coli” value was “soluble”. For “MTEDALNRIADALERMAPAPLRAPDFAVAPAFVWHVAPERLEPVRDVNRVDLDLLVGINRARDTLLDNTRRFAAGHGANNALLWGARGMGKSSLVKAVHGALQPEFPNLKLVELQREDLPSVARLLNHLRAAPERFILFCDDLSFSHDDQHYKSLKAVLDGGIEGRPENVVFYATSNRRHLMPRDMIENERSSAINPSEAVEEKVSLSDRFGLWLGFHPCDQDEYLAMIDGYCAAYGVSVAPDTLRAEAIEWQATRGARSGRVAWQFFTDLAGRQGIALRLEHHHHHH”, the “soluble on expression in E. coli” value was “soluble”. In the case of “MTEDEWEKQSSFVPVNADPLSPYTEKVKTLAAHRLDFHIRENLRLGVGELTMIGGKYPDLFAVSPFSIWHNNYNEGYTNSMASFDFSWVPKKGFEVHGEFVLDDLVGTTENESKPTAYAFNVGVRRALSTGSLKGVLGVEYALATKFVYNTFLPYLKFNNRIVYLTNLPSSRTIVDYPVGFAFGPDAKLLNVSFDLFKENVSLETDFFYLVKGPNTLYTEYPTAEEGETKTIFGASLRGKIGHVSFSLLFSGSEFLAGLGIEFGF”, the “soluble on expression in E. coli” value was “not soluble”. For “MTEEFNESMINDIKEGDKVTGEVQEIEEKQVIVAVNGAKFNGIIPISQLSTHHIDNPSDAVKVGDEIGAYVTKVEYDEENETGAYILSKRQLETEKSYEFLQEQLDNNQTIEAKVTEVVKGGLVVDVGQRGFVPASLISTDFIEDFSDFEGQVLKLKVEELDPANNRVILSRKAVEALENAEKKDELLESLNEGDVIEGKVARLTNFGAFVDIGGVDGLVHVSELSHEHVKSPEDVVSIGETVNVKIKSVDKDSERISLSIKDTLPSPFESIKGEFNEGDVIEGTVVRLANFGAFVEIKPGVQGLVHISEISHSHIGSPSEALEPGQVVSVKVLGVDVENERISLSIKATLPNENVIESDSETTQSYLDNGSDDEDNPTLGDVFGDKLKDFKFLEHHHHHH”, the “soluble on expression in E. coli” value was “soluble”.
